Reference: patent publication US11795460B2, “Compositions and methods for TTR gene editing and treating ATTR amyloidosis” (Intellia Therapeutics, Inc., priority 2017, dated 2023)
Strand notation (5' to 3'): a small letter for the sugar, then the base; units joined by * are phosphorothioate-linked, units joined directly phosphodiester-linked; [ ] holds rarer units or linkages, { } end groups; capitals alone tell only the bases. m = 2'-O-methyl; r = 2'-OH (RNA)

B1: G000502: TTR Cyno specific sgRNA modified sequence, SEQ ID No. 114; guide sequence of CR000689; cross homologous between mouse and cyno (nucleic acid)
guide: mA*mC*mA*rCrArArArUrArCrCrArGrUrCrCrArGrCrGrGrUrUrUrUrArGrAmGmCmUmAmGmAmAmAmUmAmGmCrArArGrUrUrArArArArUrArArGrGrCrUrArGrUrCrCrGrUrUrArUrCrAmAmCmUmUmGmAmAmAmAmAmGmUmGmGmCmAmCmCmGmAmGmUmCmGmGmUmGmCmU*mU*mU*mU
B2: G000571: TTR sgRNA modified sequence, Human, SEQ ID No. 112; guide sequence of CR005301 (nucleic acid)
guide: mG*mU*mC*rArCrArGrArArArCrArCrUrCrArCrCrGrUrGrUrUrUrUrArGrAmGmCmUmAmGmAmAmAmUmAmGmCrArArGrUrUrArArArArUrArArGrGrCrUrArGrUrCrCrGrUrUrArUrCrAmAmCmUmUmGmAmAmAmAmAmGmUmGmGmCmAmCmCmGmAmGmUmCmGmGmUmGmCmU*mU*mU*mU
B3: G000486: TTR sgRNA modified sequence, Human, SEQ ID No. 93; guide sequence of CR003339 (nucleic acid)
guide: mA*mC*mA*rCrArArArUrArCrCrArGrUrCrCrArGrCrArGrUrUrUrUrArGrAmGmCmUmAmGmAmAmAmUmAmGmCrArArGrUrUrArArArArUrArArGrGrCrUrArGrUrCrCrGrUrUrArUrCrAmAmCmUmUmGmAmAmAmAmAmGmUmGmGmCmAmCmCmGmAmGmUmCmGmGmUmGmCmU*mU*mU*mU
B4: G000480: TTR sgRNA modified sequence, Human, SEQ ID No. 87; guide sequence of CR003353 (nucleic acid)
guide: mA*mA*mA*rGrGrCrUrGrCrUrGrArUrGrArCrArCrCrUrGrUrUrUrUrArGrAmGmCmUmAmGmAmAmAmUmAmGmCrArArGrUrUrArArArArUrArArGrGrCrUrArGrUrCrCrGrUrUrArUrCrAmAmCmUmUmGmAmAmAmAmAmGmUmGmGmCmAmCmCmGmAmGmUmCmGmGmUmGmCmU*mU*mU*mU
B5: G000494: TTR sgRNA modified sequence, Human, SEQ ID No. 101; guide sequence of CR003360 (nucleic acid)
guide: mG*mU*mG*rArGrUrCrUrGrGrArGrArGrCrUrGrCrArUrGrUrUrUrUrArGrAmGmCmUmAmGmAmAmAmUmAmGmCrArArGrUrUrArArArArUrArArGrGrCrUrArGrUrCrCrGrUrUrArUrCrAmAmCmUmUmGmAmAmAmAmAmGmUmGmGmCmAmCmCmGmAmGmUmCmGmGmUmGmCmU*mU*mU*mU
B6: G000499: TTR sgRNA modified sequence, Human, SEQ ID No. 106; guide sequence of CR005303 (nucleic acid)
guide: mU*mG*mA*rArUrCrCrArArGrUrGrUrCrCrUrCrUrGrArGrUrUrUrUrArGrAmGmCmUmAmGmAmAmAmUmAmGmCrArArGrUrUrArArArArUrArArGrGrCrUrArGrUrCrCrGrUrUrArUrCrAmAmCmUmUmGmAmAmAmAmAmGmUmGmGmCmAmCmCmGmAmGmUmCmGmGmUmGmCmU*mU*mU*mU
B7: G000487: TTR sgRNA modified sequence, Human, SEQ ID No. 94; guide sequence of CR003357 (nucleic acid)
guide: mU*mU*mC*rUrUrUrGrGrCrArArCrUrUrArCrCrCrArGrGrUrUrUrUrArGrAmGmCmUmAmGmAmAmAmUmAmGmCrArArGrUrUrArArArArUrArArGrGrCrUrArGrUrCrCrGrUrUrArUrCrAmAmCmUmUmGmAmAmAmAmAmGmUmGmGmCmAmCmCmGmAmGmUmCmGmGmUmGmCmU*mU*mU*mU
B8: G000496: TTR sgRNA modified sequence, Human, SEQ ID No. 103; guide sequence of CR005304 (nucleic acid)
guide: mG*mG*mC*rCrGrUrGrCrArUrGrUrGrUrUrCrArGrArArGrUrUrUrUrArGrAmGmCmUmAmGmAmAmAmUmAmGmCrArArGrUrUrArArArArUrArArGrGrCrUrArGrUrCrCrGrUrUrArUrCrAmAmCmUmUmGmAmAmAmAmAmGmUmGmGmCmAmCmCmGmAmGmUmCmGmGmUmGmCmU*mU*mU*mU
B9: G000489: TTR sgRNA modified sequence, Human, SEQ ID No. 96; guide sequence of CR003344 (nucleic acid)
guide: mU*mU*mU*rGrArCrCrArUrCrArGrArGrGrArCrArCrUrGrUrUrUrUrArGrAmGmCmUmAmGmAmAmAmUmAmGmCrArArGrUrUrArArArArUrArArGrGrCrUrArGrUrCrCrGrUrUrArUrCrAmAmCmUmUmGmAmAmAmAmAmGmUmGmGmCmAmCmCmGmAmGmUmCmGmGmUmGmCmU*mU*mU*mU
B10: G000488: TTR sgRNA modified sequence, Human, SEQ ID No. 95; guide sequence of CR003346 (nucleic acid)
guide: mA*mA*mA*rGrUrUrCrUrArGrArUrGrCrUrGrUrCrCrGrGrUrUrUrUrArGrAmGmCmUmAmGmAmAmAmUmAmGmCrArArGrUrUrArArArArUrArArGrGrCrUrArGrUrCrCrGrUrUrArUrCrAmAmCmUmUmGmAmAmAmAmAmGmUmGmGmCmAmCmCmGmAmGmUmCmGmGmUmGmCmU*mU*mU*mU

Assays:
TTR [1] = test: TTR editing in primary cyno hepatocytes treated with LNP formulated Spy Cas9 mRNA (SEQ ID NO: 2) and sgRNAs (Tables 17, 18); assay type: cell-based, cynomolgus monkey; details: for 12.5 ng mRNA, 3.9 nM sgRNA Avg % Edit: Table 17, LNP formulated Spy Cas9 mRNA (SEQ ID NO: 2) and sgRNA, 72 hours
Experimental: (§1) Primary liver hepatocytes. Primary human liver hepatocytes (PHH) and primary cynomolgus liver hepatocytes (PCH) (Gibco) were cultured per the manufacturer's protocol (Invitrogen, protocol 11.28.2012). In brief, the cells were thawed and resuspended in hepatocyte thawing medium with supplements (Gibco, Cat. CM7000) followed by centrifugation at 100 g for 10 minutes for human and 80 g for 4 minutes for cyno. The supernatant was discarded and the pelleted cells resuspended in hepatocyte plating medium plus supplement pack (Invitrogen, Cat. A1217601 and CM3000). Cells were counted and plated on Bio-coat collagen I coated 96-well plates (ThermoFisher, Cat. 877272) at a density of 33,000 cells/well for human or 60,000 cells/well for cyno (or 65,000 cells/well when assaying effects on TTR protein, described further below). Plated cells were allowed to settle and adhere for 6 or 24 hours in a tissue culture incubator at 37° C. and 5% CO2 atmosphere. After incubation cells were checked for monolayer formation and media was replaced with hepatocyte culture medium with serum-free supplement pack (Invitrogen, Cat. A1217601 and CM4000).
(§2) In general, the lipid nanoparticle components were dissolved in 100% ethanol with the lipid component of various molar ratios. The RNA cargos were dissolved in 25 mM citrate, 100 mM NaCl, pH 5.0, resulting in a concentration of RNA cargo of approximately 0.45 mg/mL. The LNPs were formulated with a lipid amine to RNA phosphate (N:P) molar ratio of about 4.5 or about 6, with the ratio of mRNA to gRNA at 1:1 by weight.
(§3) The LNPs were formed by microfluidic mixing of the lipid and RNA solutions using a Precision Nanosystems NanoAssemblr™ Benchtop Instrument, according to the manufacturer's protocol. A 2:1 ratio of aqueous to organic solvent was maintained during mixing using differential flow rates. After mixing, the LNPs were collected, diluted in water (approximately 1:1 v/v), held for 1 hour at room temperature, and further diluted with water (approximately 1:1 v/v) before final buffer exchange. The final buffer exchange into 50 mM Tris, 45 mM NaCl, 5% (w/v) sucrose, pH 7.5 (TSS) was completed with PD-10 desalting columns (GE). If required, formulations were concentrated by centrifugation with Amicon 100 kDa centrifugal filters (Millipore). The resulting mixture was then filtered using a 0.2 μm sterile filter. The final LNP was stored at −80° C. until further use.
(§4) To quantitatively determine the efficiency of editing at the target location in the genome, sequencing was utilized to identify the presence of insertions and deletions introduced by gene editing.
(§5) Primers were designed around the target site within the gene of interest (e.g. TTR), and the genomic area of interest was amplified.
(§6) Additional PCR was performed per the manufacturer's protocols (Illumina) to add chemistry for sequencing. The amplicons were sequenced on an Illumina MiSeq instrument. The reads were aligned to a reference genome (e.g., the human reference genome (hg38), the cynomologus reference genome (mf5), the rat reference genome (rn6), or the mouse reference genome (mm10)) after eliminating those having low quality scores. The resulting files containing the reads were mapped to the reference genome (BAM files), where reads that overlapped the target region of interest were selected and the number of wild type reads versus the number of reads which contain an insertion, substitution, or deletion was calculated.
(§7) The editing percentage (e.g., the “editing efficiency” or “percent editing” or “indel frequency”) is defined as the total number of sequence reads with insertions/deletions (“indels”) or substitutions over the total number of sequence reads, including wild type.
(§8) Lipid nanoparticle formulations of modified sgRNAs targeting human TTR and the cyno matched sgRNA sequences were tested on primary human hepatocytes and primary cyno hepatocytes in a dose response curve. Primary human and cyno hepatocytes were plated as described in Example 1. […]

[2] = system: off-target integration sites; test: Off-target oligo insertion based assay in primary human hepatocytes (Table 30); assay type: cell-based; details: TTR sgRNAs in PHH, 100 ng Cas9 mRNA, 25 nM sgRNA, 12.5 nM donor oligo
Experimental: Off-target analysis of sgRNAs targeting TTR was performed in primary human hepatocytes (PHH) as described in Example 5, with the following modifications. PHH were plated at a density of 33,000 cells per well on collagen-coated 96-well plates as described in Example 1. Twenty-four hours post plating, cells were washed with media and transfected using Lipofectamine RNAiMAX (ThermoFisher, Cat. 13778150) as described in Example 1. Cells were transfected with a lipoplex containing 100 ng Cas9 mRNA, immediately followed by the addition of another lipoplex containing 25 nM of the sgRNA and 12.5 nM of the donor oligo (0.3 μL/well). Cells were lysed 48 hours post-transfection and gDNA was extracted and analyzed as further described in Example 5. The data is graphically represented in FIG. 20.
Fewer sites were detected in PHH for every guide tested as compared to the HekCas9 cell line, with no unique sites detected in PHH alone.

TTR [3] = test: TTR editing in primary human hepatocytes transfected with Spy Cas9 mRNA and sgRNAs (Table 13); assay type: cell-based; details: primary human hepatocytes co-transfected with Spy Cas9 mRNA (SEQ ID NO:2) and sgRNAs, 12.5 nM
Experimental: as §1
Lipofectamine RNAiMax (ThermoFisher, Cat. 13778150) based transfections were conducted as per the manufacturer's protocol. Cells were sequentially transfected with a lipoplex containing Spy Cas9 mRNA (100 ng), Lipofectamine RNAiMax (0.4 […]) and tracer RNA ([…]), Lipofectamine RNAiMax (0.4 μL/well) and OptiMem.
Transfected cells were harvested post-transfection at 24, 48, or 72 hours. The genomic DNA was extracted from each well of a 96-well plate using 50 μL/well BuccalAmp DNA Extraction solution (Epicentre, Cat. QE09050) per manufacturer's protocol. All DNA samples were subjected to PCR and subsequent NGS analyses, as described herein.
as §4, §5, §6, §7
Guides in modified sgRNA format targeting human and/or cyno TTR were delivered to primary human hepatocytes and primary cyno hepatocytes as described in Example 1. Percent editing was determined for crRNAs comprising each guide sequence across each cell type and the guide sequences were then rank ordered based on highest % edit. The screening data for the guide sequences in Table 2 in both cell lines are listed below (Table 12 through 15).

TTR [4] = test: TTR editing in primary human hepatocytes treated with LNP formulated Spy Cas9 mRNA (SEQ ID NO: 2) and sgRNAs (Table 16); assay type: cell-based; details: LNP formulated Spy Cas9 mRNA (SEQ ID NO: 2) and sgRNA, 72 hours
Experimental: as §1, §2, §3, §4, §5, §6, §7, §8

Molecule	12.5 ng mRNA, 3.9 nM sgRNA % Edit (TTR [1]; LNP formulated Spy Cas9 mRNA (SEQ ID NO: 2) and cyno matched sgRNAs, 72 hours post treatment) [%]	# Sites in PHH [2]	Avg % Deletion (TTR [3]) [%]	Avg % Edit (TTR [3]) [%]	Avg % Insert (TTR [3]) [%]	12.5 ng mRNA, 3.9 nM sgRNA Avg % Edit (TTR [1]) [%]	12.5 ng mRNA, 3.9 nM sgRNA Avg % Edit (TTR [4]) [%]
B1	80.70	–	–	–	–	–	–
B2	–	1	6.13	20.47	14.47	20.20	–
B3	–	0	56.37	59.13	2.82	–	61.33
B4	–	2	13.47	73.28	59.85	0.73	59.33
B5	–	0	1.07	26.22	25.17	14.30	6.37
B6	–	1	0.77	39.30	38.58	14.63	16.07
B7	–	0	2.27	49.57	47.38	–	17.37
B8	–	0	52.25	63.30	11.08	–	30.73
B9	–	2	10.28	24.25	14.17	31.87	16.85
B10	–	0	37.48	49.40	11.98	–	44.80
